This is an account of results in patent publication US20210122788A1.

The target in test [1] is human BTLA Fc (human) (UniProt Q7Z6A9). Nature of the test: SPR, BTLA Fc immobilised on CM5, bivalent fit.
The target is the same in test [2]. Nature of the test: SPR, BTLA Fc immobilised on CM5, monovalent (Langmuir) fit. Background: SPR reads the build-up and loss of mass on a sensor chip optically.

Usually Kd stands for the concentration at which binding is half-saturated. Low readings indicate a tighter complex, high ones a looser complex. A word on the koff: it is the first-order rate constant of dissociation. A higher koff goes with a short-lived complex. Broadly, the kon is the rate constant with which the complex forms. A lower kon goes with slower complex formation. For the substance rhesus CMV UL144 Fc (Fc fusion), in test [1], the ka1 (bivalent analysis) worked out at 16600 M⁻¹ s⁻¹, the kd1 (bivalent analysis) worked out at 0.031 s⁻¹ and the kd2 (bivalent analysis) stood at 0.129 s⁻¹. Besides, in test [2], the Kd came out at 1.3 µM, the koff was 0.0295 s⁻¹ and the on-rate (kon) came to 22800 M⁻¹ s⁻¹.
